Assay results reported in paper PMC6412629, “β-Galactosidase from Lactobacillus helveticus DSM 20075: Biochemical Characterization and Recombinant Expression for Applications in Dairy Industry” (International Journal of Molecular Sciences, 2019).

Substrate: O=[N+]([O-])c1ccccc1O[C@@H]1O[C@H](CO)[C@H](O)[C@H](O)[C@H]1O
Assay: purified protein
Type: biochemical, Lactobacillus helveticus
Conditions: 50 mM sodium phosphate pH 6.5, 30 °C, oNPG 0.5-22 mM, substrate inhibition seen

B1: recombinant β-galactosidase from L. helveticus (EcoliBL21Lhβ-gal), LacLM (Lactobacillus helveticus; Q7WTB4:Q2E) (protein)
chain 1: MEANINWLDNPEVFRVNQLPAHSDHPFFRDYREWQKQHSSYQQSLNGKWKFHFSANPMDRPQDFYQRDFDSSNFDSIPVPSEIELSNYTQNQYINVLFPWEGKIFRRPAYALDPNDHEEGSFSKGADNTVGSYLKRFDLSSALIGKDVHIKFEGVEQAMYVWLNGHFVGYAEDSFTPSEFDLTPYIQDKDNLLAVEVFKHSTASWLEDQDMFRFSGIFRSVELLGIPATHLMDMDLKPRVADNYQDGIFNLKLHFIGKKAGSFHLLVKDIKGHTLLEKNEDIKENVQINNEKFENVHLWNNHDPYLYQLLIEVYDEQQNLLELIPFQFGFRRIEISPEKVVLLNGKRLIINGVNRHEWDAKRGRSITMSDMTTDINTFKENNINAVRTCHYPNQIPWYYLCDQNGIYVMAENNLESHGTWQKMGEIEPSDNVPGSIPQWKEAVIDRARINYETFKNHTSILFWSLGNESYAGDNIIAMNEFYKSHDDTRLVHYEGVVHRPELKDKISDVESCMYLPPKKVEEYLQNDPPKPFMECEYMHDMGNSDGGMGSYIKLLDKYPQYFGGFIWDFIDQALLVHDEISGHDVLRYGGDFDDRHSDYEFSGDGLMFADRTPKPAMQEVRYYYGLHK
chain 2: MDYTNNQLHIIYGDATLGVNGKDFQYIFSYERGGLESLKVHGKEWLYRVPTPTFWRATTDNDRGSGFNLKAAQWLGADMFTKCTDIHLKVDRHDFAELPIAPFNNKFSNHEYAKSAEISFTYQTLTTPATNAKIIYNIDDVGHIKVTMRYYGKKGLPPLPVIGIRLIMPTAATGFDYEGLSGETYPDRMAGAKEGKFHIDGLPVTEYLVPQENGMHMQTKKLTINRETTQNNVDRTNEKFSLSIQQAEKPFNFSCLPYTAEELENATHIEELPLVRRTVLVIAGAVRGVGGIDSWGTDVESAYHINPELDHEFSFILN
notes: overlapping lacLM genes in pET-21d(+) (NcoI/XhoI); C-terminal His-tag (vector), follows lacM end; E. coli BL21 Star (DE3), HisTrap purified; heterodimer ~109 kDa
- Km: 1400 ± 300 µM
- Vmax: 476 µmol/min/mg
- kcat: 865 ± 120 s⁻¹
- kcat/Km: 618000 M⁻¹ s⁻¹
